This is an account of results in US7176293B1, “Compositions and methods to enhance sensitivity of cancer cells to mitotic stress” (The Wistar Institute of Anatomy and Biology, priority 1999, dated 2007).

Common to all, as to type: cell-based, human
For assay [1], the system named is DLD1 cells. As to the kind of experiment: Mitotic index of unsynchronized DLD1 cells stably expressing Chfr or Chfr-A325, exposed to nocodazole. Particulars: stably transfected unsynchronized DLD1 cells. The text has this: To determine whether ubiquitin-protein ligase activity is required for checkpoint function, the Chfr mutant that substitutes Cys325 of the ring finger with Ala was stably-expressed in DLD1 cells. These cells were then exposed to mitotic stress and examined for entry into metaphase. The mitotic index of unsynchronized DLD1 cells exposed to nocodazole is high, indicating the absence of a checkpoint that would delay entry into metaphase in response to mitotic stress.

A further assay has as its system SAOS2 cells. As to the kind of experiment: Mitotic index of transiently-transfected SAOS2 cells exposed to the TAXOL drug. Particulars: SAOS2, TAXOL drug added 36 hours after transfection; 12, 14 and 16 hour timepoints. As to the method:
(§1) Stable transfectants were prepared by transfecting DLD1 or U20S cells with 5 μg pSV2-HAchfr or pSV2-HAchfr-M580, or 5 μg pSV2 vector without insert and 1 μg pSV7neo plasmid [Wieczorek et al., supra] using Fugene-6 transfection reagent (Roche). Stably transfected cells were selected with G418. For transient expression, DLD1 or U20S cells were transfected with 5 μg pSV2-HAchfr or pSV2-HAchfrM580 or pSV2 plasmid without insert and 2 μg of a plasmid expressing green fluorescent protein using Fugene-6. SAOS2 cells were transfected as described above, except that the plasmids expressing Chfr were cotransfected with a plasmid expressing green fluorescent protein (GFP).
(§2) Cells were grown on 8-well culture slides coated with human fibronectin (Becton Dickinson) and were examined as either non-synchronized or synchronized cells. […] The slides were sealed with coverslips using Fluoromount-G (Upstate Biotechnology) and visualized with a fluorescence microscope (Leica). […]
Chfr-ΔFHA, a Chfr protein with deletion of residues 2–142 encompassing the FHA domain, was identified as a dominant negative mutant by studying its function in DLD 1 cells. […] 36 hours later, mitotic stress was induced by exposure to the TAXOL™ drug and the mitotic index was determined 8 to 16 hours late. Protein levels were determined by immunoblotting with an antibody that recognizes the N-terminal HA tag of the expressed Chfr proteins. […]

Another assay deals with DLD1 and U20S cells. As to the kind of experiment: Mitotic index of stably transfected DLD1 and U20S cells in response to nocodazole. As to the method:
as §1, §2
To determine whether Chfr accounted for the different response, DLD1 and U20S cells were prepared to stably express HA-tagged wild-type Chfr or Chfr with the […] substitution (M580) or just the neo selectable marker. […] Furthermore, the different effects of wild-type Chfr and Chfr-M580 could not be attributed to differences in protein expression, as determined by immunoblotting. […]

Assay [2] concerns DLD1 cells. Put plainly: Entry into metaphase of synchronized DLD1-neo and DLD1-chfr cells under mitotic stress. Particulars: synchronized DLD1-chfr vs DLD1-neo; drug added 12 hours after release from the G1-S block. As to the method:
All cancer cells were grown in DMEM supplemented with glutamine, penicillin, streptomycin and 10% fetal bovine serum (Life Sciences). Normal human epidermal keratinocytes and osteoblasts were grown in KGM2 and OGM media, respectively (Clonetics). The cells were examined either non-synchronized or synchronized. For synchronization, the cells were treated with 2 mM thymidine for 16 hours, then with 0.25 mM thymidine/deoxycytidine for 9 hours, and then with 0.5 μg/ml aphidicolin for 20–24 hours. The cells were washed three times with PBS between each step [Janss et al., 1998, Exp. Cell Res., 243:29–38]. To induce mitotic stress, synchronized or non-synchronized cells were exposed to 0.5 μg/ml nocodazole, 5 μM of the TAXOL™ drug or 0.5 μg/ml colcemid. Cells were grown on 8-well culture slides coated with human fibronectin (Becton Dickinson) and were examined as either non-synchronized or synchronized cells. […] The slides were sealed with coverslips using Fluoromount-G (Upstate Biotechnology) and visualized with a fluorescence microscope (Leica). […] Progression through the cell cycle was monitored by measuring the mitotic index and by flow cytometric analysis of the DNA content of the cells.

B1: wild-type Chfr: 664 amino acid human checkpoint protein with FHA and ring finger domains, SEQ ID NO: 2; HA-tagged when expressed in cells (protein, listed as Homo sapiens)
chain: MERPEEGKQSPPPQPWGRLLRLGAEEGEPHVLLRKREWTIGRRRGCDLSFPSNKLVSGDHCRIVVDEKSGQVTLEDTSTSGTVINKLKVVKKQTCPLQTGDVIYLVYRKNEPEHNVAYLYESLSEKQGMTQESFEANKENVFHGTKDTSGAGAGRGADPRVPPSSPATQVCFEEPQPSTSTSDLFPTASASSTEPSPAGRERSSSCGSGGGGISPKGSGPSVASDEVSSFASALPDRKTASFSSLEPQDQEDLEPVKKKMRGDGDLDLNGQLLVAQPRRNAQTVHEDVRAAAGKPDKMEETLTCIICQDLLHDCVSLQPCMHTFCAACYSGWMERSSLCPTCRCPVERICKNHILNNLVEAYLIQHPDKSRSEEDVQSMDARNKITQDMLQPKVRRSFSDEEGSSEDLLELSDVDSESSDISQPYVVCRQCPEYRRQAAQPPHCPAPEGEPGAPQALGDAPSTSVSLTTAVQDYVCPLQGSHALCTCCFQPMPDRRAEREQDPRVAPQQCAVCLQPFCHLYWGCTRTGCYGCLAPFCELNLGDKCLDGVLNNNSYESDILKNYLATRGLTWKNMLTESLVALQRGVFLLSDYRVTGDTVLCYCCGLRSFRELTYQYRQNIPASELPVAVTSRPDCYWGRNCRTQVKAHHAMKFNHICEQTRFKN
modifications: HA tag when expressed
notes: HA-tagged when expressed in cells
On to B1, for which the “mitotic index after exposure to nocodazole” value with DLD1 cells [1] is on record as “low mitotic index”. Further, the “effect on mitotic index compared to cells transfected with empty vector” value in the assay on SAOS2 cells is reported as “no effect”. The “mitotic index in response to nocodazole” value in the assay on DLD1 and U20S cells is listed as “low mitotic index”. Also, in the assay on DLD1 cells [2], the “entry into metaphase in response to mitotic stress” value is given as “delays entry into metaphase”.
